Results on three molecules are retold here after US20040209839, “Human peroxisome proliferator activated receptor gamma” (published 2004).

One data set concerns the target hPPARgamma (Homo sapiens, UniProt P37231 SEQ:20-494). Briefly: EMSA; hPPARgamma alone, no complex. As to conditions: tags: T3 coupled reticulocyte lysate (Promega), label: 32P end. A general note: A gel shift assay detects complexes by their altered migration in electrophoresis.
Data set [1] has as its target hPPARgamma/hRXRalpha heterodimer (Homo sapiens, UniProt P37231;P19793 P37231:31-505,P19793:1-462). As to the kind of experiment: EMSA; strong retarded complex. Particulars: tags: hPPARgamma in vitro translated, hRXRalpha baculovirus/Sf21 expressed, label: 32P end.

Sequence of hPPARgamma/hRXRalpha heterodimer (P37231 31-505, chain 1 of 2): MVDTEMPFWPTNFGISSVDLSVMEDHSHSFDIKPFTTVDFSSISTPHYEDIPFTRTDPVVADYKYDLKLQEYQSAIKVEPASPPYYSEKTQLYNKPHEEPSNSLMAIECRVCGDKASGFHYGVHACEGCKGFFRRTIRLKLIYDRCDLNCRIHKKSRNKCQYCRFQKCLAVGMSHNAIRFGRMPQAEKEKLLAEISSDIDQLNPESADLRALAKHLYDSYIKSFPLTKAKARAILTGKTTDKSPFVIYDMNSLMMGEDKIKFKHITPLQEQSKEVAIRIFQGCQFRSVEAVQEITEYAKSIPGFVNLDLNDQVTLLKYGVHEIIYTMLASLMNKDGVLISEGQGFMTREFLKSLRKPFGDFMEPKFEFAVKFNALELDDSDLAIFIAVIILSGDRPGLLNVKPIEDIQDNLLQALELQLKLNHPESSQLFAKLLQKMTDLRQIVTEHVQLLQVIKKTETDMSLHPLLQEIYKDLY
Sequence of hPPARgamma/hRXRalpha heterodimer (P19793 whole entry, chain 2 of 2): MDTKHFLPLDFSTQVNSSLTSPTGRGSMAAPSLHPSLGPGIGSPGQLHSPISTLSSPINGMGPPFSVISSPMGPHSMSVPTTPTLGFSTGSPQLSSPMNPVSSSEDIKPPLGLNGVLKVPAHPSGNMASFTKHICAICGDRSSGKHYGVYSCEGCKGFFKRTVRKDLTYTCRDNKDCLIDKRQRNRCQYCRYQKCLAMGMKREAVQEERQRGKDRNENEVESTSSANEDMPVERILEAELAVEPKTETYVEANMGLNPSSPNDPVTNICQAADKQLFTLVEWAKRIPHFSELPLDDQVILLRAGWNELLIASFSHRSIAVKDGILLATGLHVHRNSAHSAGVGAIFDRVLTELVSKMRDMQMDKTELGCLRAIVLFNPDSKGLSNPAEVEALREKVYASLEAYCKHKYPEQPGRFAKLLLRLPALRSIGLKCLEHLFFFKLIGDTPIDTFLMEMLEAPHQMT
Sequence of hPPARgamma (P37231 31-505): as the sequence (P37231 31-505, chain 1 of 2) above

B1: ApoA1 A site (dsDNA)
DNA 1: GATCCCCACTGAACCCTTGACCCCTGCCCTGCAGCA
DNA 2: TGCTGCAGGGCAGGGGTCAAGGGTTCAGTGGGGATC
For the molecule B1, the figures for the binding result (with hPPARgamma; in data set [1]) were “no binding” and “binds”, respectively.

B2: AOX PPRE (dsDNA)
DNA 1: CTAGCGATATCATGACCTTTGTCCTAGGCCTC
DNA 2: CTAGGAGGCCTAGGACAAAGGTCATGATATCG
Turning to B2, the binding result is listed as “no binding” with hPPARgamma (5' CTAG overhangs) and “binds” in data set [1] (5' CTAG overhangs).

B3: hydratase (bifunctional enzyme) PPRE (dsDNA)
DNA 1: GATCCCTTTGACCTATTGAACTATTACCTACATTA
DNA 2: TAATGTAGGTAATAGTTCAATAGGTCAAAGGGATC
Regarding B3, the results for the binding result (in the data set with hPPARgamma; in data set [1]) were “no binding” and “binds”, respectively.
